Assay results: patent publication US20260193348A1 (ANTENGENE BIOLOGICS, published 2026)
Positions count from the first letter of the chain named. Names and notes keep the numbering of the source.

B1: ATG201-Y101F-19F (bispecific antibody, human IgG1, kappa, L234A L235A)
heavy 1: not shown
heavy 2: EVKLQESGPGLVAPSQSLSVTCTVSGVSLPDYGVSWIRQPPRKGLEWLGVIWGSETTYYNSALKSRLTIIKDNSKSQVFLKMNSLQTDDTAIYYCAKHYYYGGSYAMDYWGQGTSVTVSSASTKGPSVFPLAPSSKSTSGGTAALGCLVKDYFPEPVTVSWNSGALTSGVHTFPAVLQSSGLYSLSSVVTVPSSSLGTQTYICNVNHKPSNTKVDKKVEPKSCGGGGSGGGGSEVQLVQSGAEVKKPGSSVKVSCKASGYTFSSYVIHWVRQAPGQCLEWMGYINPYNDVIKYNEKFKGRVTLTSDKSTSTAYMELSSLRSEDTAVYYCARDSFYSYDGFAYWGQGTLVTVSSGGGGSGGGGSGGGGSGGGGSEIVLTQSPDFQSVTPKEKVTITCSASSSVSYMHWYQQKPDQSPKRLIYDTSKLASGVPSRFSGSGSGTDFTLTINSLEAEDAATYYCQQWSSNPPTFGCGTKVEIKGGGGSGGGGSDKTHTCPPCPAPEAAGGPSVFLFPPKPKDTLMISRTPEVTCVVVDVSHEDPEVKFNWYVDGVEVHNAKTKPREEQYNSTYRVVSVLTVLHQDWLNGKEYKCKVSNKALPAPIEKTISKAKGQPREPQVCTLPPSREEMTKNQVSLSCAVKGFYPSDIAVEWESNGQPENNYKTTPPVLDSDGSFFLVSKLTVDKSRWQQGNVFSCSVMHEALHNHYTQKSLSLSPGK
light: DIQMTQTTSSLSASLGDRVTISCRASQDISKYLNWYQQKPDGTVKLLIYHTSRLHSGVPSRFSGSGSGTDYSLTISNLEQEDIATYFCQQGNTLPYTFGGGTKLEITRTVAAPSVFIFPPSDEQLKSGTASVVCLLNNFYPREAKVQWKVDNALQSGNSQESVTEQDSKDSTYSLSSTLTLSKADYEKHKVYACEVTHQGLSSPVTKSFNRGEC
notes: CD19xCD3 Fab-scFv-Fab: two C19F Fabs, anti-CD3 scFv 40E9-L2H3-Y101F.H; L234A/L235A
B2: ATG201-N55S-19F (bispecific antibody, human IgG1, kappa, L234A L235A)
heavy 1: not shown
heavy 2: B1 heavy 2 with N288S, F334Y
light: B1 light
notes: CD19xCD3 Fab-scFv-Fab: two C19F Fabs, anti-CD3 scFv 40E9-L2H3-N55S.H; L234A/L235A
B3: ATG201-D105R-19B (bispecific antibody, human IgG1, kappa, L234A L235A)
heavy 1: not shown
heavy 2: QVQLQQSGAELVRPGSSVKISCKASGYAFSSYWMNWVKQRPGQGLEWIGQIWPGDGDTNYNGKFKGKATLTADESSSTAYMQLSSLASEDSAVYFCARRETTTVGRYYYAMDYWGQGTTVTVSSASTKGPSVFPLAPSSKSTSGGTAALGCLVKDYFPEPVTVSWNSGALTSGVHTFPAVLQSSGLYSLSSVVTVPSSSLGTQTYICNVNHKPSNTKVDKKVEPKSCGGGGSGGGGSEVQLVQSGAEVKKPGSSVKVSCKASGYTFSSYVIHWVRQAPGQCLEWMGYINPYNDVIKYNEKFKGRVTLTSDKSTSTAYMELSSLRSEDTAVYYCARDSYYSYRGFAYWGQGTLVTVSSGGGGSGGGGSGGGGSGGGGSEIVLTQSPDFQSVTPKEKVTITCSASSSVSYMHWYQQKPDQSPKRLIYDTSKLASGVPSRFSGSGSGTDFTLTINSLEAEDAATYYCQQWSSNPPTFGCGTKVEIKGGGGSGGGGSDKTHTCPPCPAPEAAGGPSVFLFPPKPKDTLMISRTPEVTCVVVDVSHEDPEVKFNWYVDGVEVHNAKTKPREEQYNSTYRVVSVLTVLHQDWLNGKEYKCKVSNKALPAPIEKTISKAKGQPREPQVCTLPPSREEMTKNQVSLSCAVKGFYPSDIAVEWESNGQPENNYKTTPPVLDSDGSFFLVSKLTVDKSRWQQGNVFSCSVMHEALHNHYTQKSLSLSPGK
light: not shown
notes: CD19xCD3 Fab-scFv-Fab: two C19B Fabs, anti-CD3 scFv 40E9-L2H3-D105R.H; L234A/L235A
B4: ch40E9 (antibody, V domains shown)
VH: EVQLQLSGPELVKPGASVKMSCKASGYTFSSYVIHWVKQKPGQGLEWIGYINPYNDVIKYNEKFKGKATLTSDKSSSTAYMELSSLTSEDSAVYYCARDSYYSYDGFAYWGQGTLVTVSA
VL: QIVLTQSPAIMSASPGEKVTMTCSASSSVSYMHWYQQKSGTSPKRWIYDTSKLASGVPARFSGSGSGTSYSLTISSMEAEDAATYYCQQWSSNPPTFGGGTKVEIK
notes: also called 40-C12-C10-E9
B5: 40E9-L2H3 (antibody, V domains shown)
VH: EVQLVQSGAEVKKPGSSVKVSCKASGYTFSSYVIHWVRQAPGQCLEWMGYINPYNDVIKYNEKFKGRVTLTSDKSTSTAYMELSSLRSEDTAVYYCARDSYYSYDGFAYWGQGTLVTVSS
VL: EIVLTQSPDFQSVTPKEKVTITCSASSSVSYMHWYQQKPDQSPKRLIYDTSKLASGVPSRFSGSGSGTDFTLTINSLEAEDAATYYCQQWSSNPPTFGCGTKVEIK
notes: also called ch40E9-derived humanized antibody 40E9-L2H3
B6: 40E9-L2H3-N55S.H (antibody, V domains shown)
VH: B5 VH with N55S
VL: B5 VL
notes: also called 40E9-N55S

Columns and labels:
[1] = biological target: T1, CD3 on T cells / Jurkat cells (human, UniProt P07766 23-207; P04234 22-171; P09693 23-182); assay: FACS on Jurkat cells expressing CD3
T1 construct: whole, on cells; Native CD3 complex on CD3+ T cells isolated from normal donors or on Jurkat cells; also called human CD3; CD3+ T cells

[2] = biological target: T2, CD19 on NALM6 cells, Raji cells and primary B cells (human, UniProt P15391 20-556); assay: FACS on Raji cells expressing CD19 (FIG. 45C)
T2 construct: whole, on cells; Endogenous CD19 on human cell lines / donor B cells; also called NALM6 cells expressing CD19; Raji cells expressing CD19
T2 sequence (looked up): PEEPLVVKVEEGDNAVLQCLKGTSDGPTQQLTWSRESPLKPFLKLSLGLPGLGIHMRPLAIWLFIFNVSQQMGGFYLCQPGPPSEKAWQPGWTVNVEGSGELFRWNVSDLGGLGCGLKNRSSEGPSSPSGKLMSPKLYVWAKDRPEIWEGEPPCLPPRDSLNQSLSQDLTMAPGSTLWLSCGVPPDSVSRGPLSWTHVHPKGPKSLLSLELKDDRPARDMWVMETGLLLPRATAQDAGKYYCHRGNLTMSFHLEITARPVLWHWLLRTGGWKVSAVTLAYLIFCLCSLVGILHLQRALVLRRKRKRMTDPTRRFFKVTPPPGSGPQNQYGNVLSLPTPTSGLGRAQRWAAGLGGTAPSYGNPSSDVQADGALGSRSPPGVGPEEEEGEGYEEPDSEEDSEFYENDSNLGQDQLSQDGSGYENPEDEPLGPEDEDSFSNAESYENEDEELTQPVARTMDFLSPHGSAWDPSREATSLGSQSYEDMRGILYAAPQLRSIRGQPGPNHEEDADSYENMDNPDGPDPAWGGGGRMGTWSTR
Method: (§1) To evaluate the binding affinity of the generated bispecific antibodies to NALM6 cells, Raji cells, Primary B cells, DoHH2 cells, SU-DHL-1 cells and Jurkat cells, the NALM6 cells expressing CD19, Raji cells expressing CD19, Primary B cells, DoHH2 cells expressing CD20, SU-DHL-1 cells without expressing CD19 or CD20 and Jurkat cells expressing CD3 were stained by the test antibodies and the binding affinity was determined by FACS analysis. Primary B cells were isolated from healthy donors' PBMC by human B cell enrichment Kit (Stemcell #19054). The protocol of FACS analysis is described as follows: [0933] (a) The cells from each cell line above were harvested and centrifuged at 300 g for 5 min, and the supernatant were discarded. […] (b) The cells were washed 2 times with FACS buffer. [0935] (c) Step (a) was repeated. [0936] […] [0937] (e) Step (b) was repeated and the cells were resuspended with 100 μl/well diluted secondary antibody, and incubated at 4° C. for 45 minutes in the dark. [0938] (f) Step (b) was repeated and the cells were resuspended the cells with 150 μl/well FACS buffer and kept in dark for FACS analysis.

[3] = biological target: T2, CD19 on NALM6 cells, Raji cells and …; assay: FACS on NALM6 cells expressing CD19 (FIG. 45A)
[4] = biological target: T2, CD19 on NALM6 cells, Raji cells and …; assay: FACS on primary B cells from healthy donors' PBMC (FIG. 45D)
Method: as §1

[5] = biological target: T2, CD19 on NALM6 cells, Raji cells and …; assay: FACS on NALM6 cells expressing CD19, another experiment (FIG. 45B)
Method: as §1

CD3ε monomer = biological target: T3, CD3ε monomer (UniProt P07766 23-126); assay: ELISA, soluble protein coated at 0.2 or 2 ug/mL
T3 construct: also called nature CD3ε; denatured CD3ε monomer
T3 sequence (P07766 23-126): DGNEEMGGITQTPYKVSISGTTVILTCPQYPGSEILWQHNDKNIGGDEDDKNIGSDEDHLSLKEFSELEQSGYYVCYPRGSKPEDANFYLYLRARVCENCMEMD

T1 sequence (P07766 23-207, chain 1 of 3): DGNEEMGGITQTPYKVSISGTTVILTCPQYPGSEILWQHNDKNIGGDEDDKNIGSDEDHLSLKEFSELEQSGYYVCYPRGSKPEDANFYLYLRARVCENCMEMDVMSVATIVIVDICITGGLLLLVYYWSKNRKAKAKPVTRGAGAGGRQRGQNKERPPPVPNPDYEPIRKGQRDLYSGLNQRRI
T1 sequence (P04234 22-171, chain 2 of 3): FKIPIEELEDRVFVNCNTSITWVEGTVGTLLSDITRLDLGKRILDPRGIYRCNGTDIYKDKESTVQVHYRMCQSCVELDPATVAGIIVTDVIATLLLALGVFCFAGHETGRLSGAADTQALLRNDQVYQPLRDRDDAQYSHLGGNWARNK
T1 sequence (P09693 23-182, chain 3 of 3): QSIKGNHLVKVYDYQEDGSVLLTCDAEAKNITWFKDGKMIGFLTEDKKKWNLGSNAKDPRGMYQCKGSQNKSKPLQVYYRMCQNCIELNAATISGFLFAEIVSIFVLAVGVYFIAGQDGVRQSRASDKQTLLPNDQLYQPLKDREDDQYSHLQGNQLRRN

| Binder | binding result [1] | EC50 [2] | EC50 [3] | EC50 [4] | EC50 [5] | binding result (CD3ε monomer) |
| --- | --- | --- | --- | --- | --- | --- |
| B1 | binds | 1.13 nM | 4.36 nM | 0.468 nM | 0.609 nM | – |
| B2 | binds | 1.5 nM | 4.91 nM | 1.08 nM | 0.847 nM | – |
| B3 | binds | – | 2.9 nM | – | – | – |
| B4 | – | – | – | – | – | no binding |
| B5 | – | – | – | – | – | no binding |
| B6 | – | – | – | – | – | no binding |
